Our source for the percent of double-positive cells (anti-human PD-1 and anti-mouse CD3) values is patent US20190387724A1.

The target in this assay is human/mouse chimeric PD-1 protein (humanized PD-1 of B-hPD-1 mice) (human/mouse chimeric). Kind of assay: flow cytometry on T lymphocytes (CD3+) of F1 generation B-hPD-1 mice. Background: Flow cytometry measures light scatter and fluorescence of single cells or particles in a stream.
Chain of human/mouse chimeric PD-1 protein (humanized PD-1 of B-hPD-1 mice) (human/mouse chimeric) (chain, as listed by the source mutant limits assumed): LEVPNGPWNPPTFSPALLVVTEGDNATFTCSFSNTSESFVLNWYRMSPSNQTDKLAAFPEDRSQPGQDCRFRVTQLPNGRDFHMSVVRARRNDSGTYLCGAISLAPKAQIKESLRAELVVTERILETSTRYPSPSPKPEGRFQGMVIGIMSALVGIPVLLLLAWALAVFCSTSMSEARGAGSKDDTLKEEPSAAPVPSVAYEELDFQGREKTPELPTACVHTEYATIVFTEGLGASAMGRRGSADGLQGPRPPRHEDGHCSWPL

As for “anti-human PD-1 antibody hPD-1 FITC (Biolegend, article number 329904)”, the percent of double-positive cells (anti-human PD-1 and anti-mouse CD3) came to 92%.
